Data on 2 molecules can be found in paper PMC5987714 (The Journal of Cell Biology, 2018).

One test deals with TRAF2 (UniProt Q12933). Kind of test: two-color single-molecule coincidence. The note with it: reference: no ABL1; sites Y14.
Test [1] concerns the target T1, mCherry-CAV1^Y14-p (CAV1 + ABL1 coexpression) (UniProt Q03135 1-178).
T1 sequence: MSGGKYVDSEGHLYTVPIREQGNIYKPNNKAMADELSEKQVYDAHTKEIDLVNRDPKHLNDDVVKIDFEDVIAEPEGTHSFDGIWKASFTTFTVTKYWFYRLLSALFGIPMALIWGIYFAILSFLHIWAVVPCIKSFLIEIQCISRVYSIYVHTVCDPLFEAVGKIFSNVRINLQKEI
The experiment in a line: two-color single-molecule fluorescence coincidence.

The target of test [2] is T2, mCherry-CAV1^FL (caveolin-1, full length, amino acids 1–178) in cell-free caveolae (UniProt Q03135 1-178).
T2 sequence: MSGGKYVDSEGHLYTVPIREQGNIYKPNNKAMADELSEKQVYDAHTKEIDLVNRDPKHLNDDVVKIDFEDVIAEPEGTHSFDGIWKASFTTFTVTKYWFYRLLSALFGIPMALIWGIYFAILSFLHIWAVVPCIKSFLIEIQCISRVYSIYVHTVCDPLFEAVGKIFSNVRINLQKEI
Kind of test: two-color single-molecule fluorescence coincidence.

Consider “CAV1 (caveolin-1; cell-free and transfected constructs) 1-178 (from UniProt Q03135) untagged ABL1 coexpressed”, for which the “other: position of coincidence peak” value in the test with TRAF2 is “stronger; reference 0.75”.

B1: GFP-TRAF2 (TNF receptor–associated factor 2), cell-free (natural protein)
chain: MAAASVTPPGSLELLQPGFSKTLLGTKLEAKYLCSACRNVLRRPFQAQCGHRYCSFCLASILSSGPQNCAACVHEGIYEEGISILESSSAFPDNAARREVESLPAVCPSDGCTWKGTLKEYESCHEGRCPLMLTECPACKGLVRLGEKERHLEHECPERSLSCRHCRAPCCGADVKAHHEVCPKFPLTCDGCGKKKIPREKFQDHVKTCGKCRVPCRFHAIGCLETVEGEKQQEHEVQWLREHLAMLLSSVLEAKPLLGDQSHAGSELLQRCESLEKKTATFENIVCVLNREVERVAMTAEACSRQHRLDQDKIEALSSKVQQLERSIGLKDLAMADLEQKVLEMEASTYDGVFIWKISDFARKRQEAVAGRIPAIFSPAFYTSRYGYKMCLRIYLNGDGTGRGTHLSLFFVVMKGPNDALLRWPFNQKVTLMLLDQNNREHVIDAFRPDVTSSSFQRPVNDMNIASGCPLFCPVSKMEAKNSYVRDDAIFIKAIVDLTGL
In the case of B1, in test [1], the “coincidence C = mCherry/(GFP+mCherry), Gaussian peak” value was 0.6 and the “stoichiometry N” value is ~1 mCherry-CAV1:GFP-TRAF2. Also, the “coincidence C = mCherry/(GFP+mCherry), Gaussian peak” value in test [2] came to 0.75.
